Experiments:
[1] = biological target: Stl^NT-Avi, biotinylated Stl 1-159 for the BLI sensor (Staphylococcus aureus, UniProt Q9F0J8 1-159, biotin on the Avi-tag); assay: BLI
[2] = biological target: Stl-Avi, biotinylated full-length Stl for the BLI sensor (Staphylococcus aureus, UniProt Q9F0J8 1-267, biotin on the Avi-tag); assay: BLI
native MS = biological target: the molecule itself; assay: native MS

B1: Mycobacterium tuberculosis dUTPase, wild type (MtDUT^WT) (enzyme)
chain: MSTTLAIVRLDPGLPLPSRAHDGDAGVDLYSAEDVELAPGRRALVRTGVAVAVPFGMVGLVHPRSGLATRVGLSIVNSPGTIDAGYRGEIKVALINLDPAAPIVVHRGDRIAQLLVQRVELVELVEVSSFDEAGLASTSRGDGGHGSSGGHASL
With B1 the Kd [1] was 0.19 ± 0.001 nM, the koff [1] was 0.000103 ± 0.04 s⁻¹ and the kon [1] was 542000 ± 0.01 M⁻¹ s⁻¹. For the same binder, the Kd [2] was less than 0.001 nM, the koff [2] was less than 1e-07 s⁻¹ and the kon [2] was 270000 ± 0.01 M⁻¹ s⁻¹. The “stoichiometry N” value (native MS) was 3 subunits in the oligomer.

Source: publication PMC11544220 (Scientific Reports, 2024)
